T1: RuvA wild type (Escherichia coli, UniProt P0A809 1-203)
T1 sequence: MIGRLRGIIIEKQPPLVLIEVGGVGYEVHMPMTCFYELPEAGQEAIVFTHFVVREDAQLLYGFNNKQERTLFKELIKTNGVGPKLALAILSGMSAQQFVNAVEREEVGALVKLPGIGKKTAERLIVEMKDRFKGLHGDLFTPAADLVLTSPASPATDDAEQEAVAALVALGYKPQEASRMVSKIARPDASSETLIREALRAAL

T2: wild-type RuvB protein (E. coli) (UniProt P0A812)
T2 sequence: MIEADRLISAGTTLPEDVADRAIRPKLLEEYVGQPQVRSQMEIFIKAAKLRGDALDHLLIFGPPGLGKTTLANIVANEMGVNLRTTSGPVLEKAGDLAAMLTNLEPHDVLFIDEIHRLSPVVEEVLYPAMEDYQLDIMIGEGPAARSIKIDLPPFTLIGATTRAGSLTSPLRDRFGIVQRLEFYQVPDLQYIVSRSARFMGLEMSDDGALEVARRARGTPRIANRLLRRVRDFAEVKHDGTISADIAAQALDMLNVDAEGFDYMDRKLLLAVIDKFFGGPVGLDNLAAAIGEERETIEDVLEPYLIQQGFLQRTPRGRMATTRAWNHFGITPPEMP


What was measured:
RuvA wild type = target: T1, RuvA wild type; experiment: EMSA; EDTA; complexes I and II; EMSA with ~4-5 ng labelled DNA; 5 mM EDTA (gel 0.5x TBE) or 3 mM MgCl2 without EDTA (gel 0.5x TB + 200 uM MgCl2); buffer as in cited ref 18; salt, pH and temperature not stated; settings: protein: recombinant; chain copies: 4; label: 5' IRD700 on S24 (IT.01); four-way junction of 4 strands
[1] = target: T2, wild-type RuvB protein (E. coli)
[2] = target: the molecule itself; experiment: SDS-PAGE without boiling the protein samples; purified RuvA mutant proteins run on SDS-PAGE without boiling; tetramer band under denaturing gel conditions; data not shown

Binder | stoichiometry N [2] | further results
X12 (synthetic Holliday junction) (structured_DNA) DNA 1: GACGCTGCCGAATTCTACCAGTGCCTTGCTAGGACATCTTTGCCCACCTGCAGGTTCACCC DNA 2: TGGGTGAACCTGCAGGTGGGCAAAGATGTCCTAGCAATGTAATCGTCAAGCTTTATGCCGTT DNA 3: CAACGGCATAAAGCTTGACGATTACATTGCTAGGACATGCTGTCTAGAGGATCCGACTATCGA DNA 4: ATCGATAGTCGGATCCTCTAGACAGCATGTCCTAGCAAGGCACTGGTAGAATTCGGCAGCGT | – | binding result (RuvA wild type): binds
wild-type RuvA (natural protein) MIGRLRGIIIEKQPPLVLIEVGGVGYEVHMPMTCFYELPEAGQEAIVFTHFVVREDAQLLYGFNNKQERTLFKELIKTNGVGPKLALAILSGMSAQQFVNAVEREEVGALVKLPGIGKKTAERLIVEMKDRFKGLHGDLFTPAADLVLTSPASPATDDAEQEAVAALVALGYKPQEASRMVSKIARPDASSETLIREALRAAL | – | RuvA concentration required for RuvB (250 nM) to unwind 50% of a labelled 52-mer annealed to phiX174 ssDNA (DNA helicase assay) [1]: 100 nM
RuvAz87 (natural protein, E. coli, UniProt P0A809 1-203, looked up, RuvA of E. coli with the two mutations N79D N100D; Purification steps and expression construct of the mutant proteins are in the supplementary material (Text S1); also called ruvAz87 (N79D N100D); ruvA87; source: over-expressed in E. coli and purified) MIGRLRGIIIEKQPPLVLIEVGGVGYEVHMPMTCFYELPEAGQEAIVFTHFVVREDAQLLYGFNNKQERTLFKELIKTDGVGPKLALAILSGMSAQQFVDAVEREEVGALVKLPGIGKKTAERLIVEMKDRFKGLHGDLFTPAADLVLTSPASPATDDAEQEAVAALVALGYKPQEASRMVSKIARPDASSETLIREALRAAL | 4 | –
RuvAz3 (natural protein, E. coli, UniProt P0A809 1-203, looked up, RuvA of E. coli with the three mutations H29R K129E F140S; Purification steps and expression construct of the mutant proteins are in the supplementary material (Text S1); also called ruvAz3 (H29R K129E F140S); pGB-ruvAz3; source: over-expressed in E. coli and purified) MIGRLRGIIIEKQPPLVLIEVGGVGYEVRMPMTCFYELPEAGQEAIVFTHFVVREDAQLLYGFNNKQERTLFKELIKTNGVGPKLALAILSGMSAQQFVNAVEREEVGALVKLPGIGKKTAERLIVEMEDRFKGLHGDLSTPAADLVLTSPASPATDDAEQEAVAALVALGYKPQEASRMVSKIARPDASSETLIREALRAAL | 4 | –

Source: paper PMC2265524, “ruvA Mutants That Resolve Holliday Junctions but Do Not Reverse Replication Forks” (PLoS Genetics, 2008)
